Data: patent publication EP4375293A1 (Max-Planck-Gesellschaft zur Förderung der Wissenschaften …, dated 2024)
Changes are numbered by the printed parent chain.

B1: Ma28F04 (VHH)
VHH: QVQLVESGGGLVQPGGSLRLSCVVSDLGLDYYQIGWFRQAPGKEREGVSCFRSSDEIRYYADPVKGRFTTFRDNAGTTVYLQMNSLKPEDTGVYYCAVAPQTYYHGTWYGECAAAGMDSWGKGTLVTVSS
notes: Monomeric VHH
B2: Ma16B06 (VHH)
VHH: QVQLVESGGGLVRTGGSLRLSCAASGSILQIWAMKWYRQAPGLQREWIATIPNSGEPFYASSVEGRFTGSRENEETVYLYLNNLEPEDTAVYYCEVNEGVPVREYWGQGTQVTVSS
notes: Monomeric VHH; also called VHH Ma16B06
B3: Ma28H11 (VHH)
VHH: QVQLVESGGGLVQPGGSLRLSCATSGLTLDHYAIGWFLQAPGKEREGVACVSDDERSLYAPSVMGRFSISRDNAKKTFYLEMNSLKPEDTGVYYCASGPVVPGTLCRIPTVLGYDDWGQGTQVTVSS
notes: Monomeric VHH; also called M28H11
B4: Ma28D01 (VHH)
VHH: B1 VHH with D26E, P63S, L125Q
notes: Monomeric VHH

These binders were tested against SARS-CoV-2 Delta variant spike protein (SARS-CoV-2 (Delta variant)) (assay: cell-based or functional assay).

With B1 as the binder, how does the “Lowest virus neutralizing concentration (pM; IC99)” value read?
The value was 500 pM.

With B2 as the binder, how does the “Lowest virus neutralizing concentration (pM; IC99)” value read?
The value was greater than 5000 pM.

Which “Lowest virus neutralizing concentration (pM; IC99)” value does the source give for B3 here?
Its value is 50 pM.

What follows are binders tested against SARS-CoV-2 Omicron BA.1 variant spike protein (SARS-CoV-2 (Omicron BA.1 variant)) (assay: cell-based or functional assay).

How did the “Lowest virus neutralizing concentration (pM; IC99)” value turn out when B4 was run?
The value was 1700 pM.

For B1, which “Lowest virus neutralizing concentration (pM; IC99)” value is on record?
The value was 500 pM.

B2 was tested. Which “Lowest virus neutralizing concentration (pM; IC99)” value did it give?
Its value is 50 pM.

For B3, which “Lowest virus neutralizing concentration (pM; IC99)” value is on record?
Its value is greater than 5000 pM.

What follows are binders tested against T1, SARS-CoV-2 Delta RBD (Delta_RBD-Avi-His) (SARS-CoV-2 (Delta variant)) (assay: BLI, biotinylated RBD).

Does B2 bind?
Result: no binding

What follows are binders tested against T1, SARS-CoV-2 Delta RBD (Delta_RBD-Avi-His) (assay: BLI, biotinylated RBD, mass transport model fit).

With B4 as the binder, how does the Kd read?
Its Kd is 15 pM.

Which Kd does the source give for B1 here?
Its Kd is 30 pM.

With B3 as the binder, how does the Kd read?
Its Kd is 30 pM.

Each binder was assayed against SARS-CoV-2 Omicron BA.5 RBD (Omicron_BA.5_RBD-AviHis) (SARS-CoV-2 (Omicron BA.5 variant)) (assay: BLI, biotinylated RBD, mass transport model fit).

How did the Kd turn out when B4 was run?
The Kd was 30 pM.

Which Kd does the source give for B1 here?
The Kd was 30 pM.

B2 was tested. Which Kd did it give?
Its Kd is 20000 pM.

Which Kd does the source give for B3 here?
Its Kd is 300 pM.

These binders were tested against SARS-CoV-2 Omicron BA.1 RBD (Omicron_BA.1_RBD-AviHis) (SARS-CoV-2 (Omicron BA.1 variant)) (assay: BLI, biotinylated RBD, mass transport model fit).

For B4, which Kd is on record?
Its Kd is 200 pM.

With B1 as the binder, how does the Kd read?
Its Kd is 150 pM.

Which Kd does the source give for B2 here?
The Kd was 40 pM.

Which Kd does the source give for B3 here?
The Kd was 30000 pM.

Each binder was assayed against SARS-CoV-2 Omicron BA.2.75 RBD (Omicron_BA.2.75_RBD-AviHis) (SARS-CoV-2 (Omicron BA.2.75 variant)) (assay: BLI, biotinylated RBD, mass transport model fit).

Which Kd does the source give for B4 here?
Its Kd is 300 pM.

For B1, which Kd is on record?
The Kd was 200 pM.

With B2 as the binder, how does the Kd read?
Its Kd is 60 pM.

With B3 as the binder, how does the Kd read?
The Kd was 600 pM.
